{"source": "paper PMC4141209", "proteins": {"B1": {"name": "TlLhpH (Thermococcus litoralis DSM 5473) (protein)", "chain": "MFKKLENLEKWEPPKDWMVIKTLDTHTAGEPLRIILSGFPEIPGKTILEKRRYLMENLDHLRKALMWEPRGHADMYGAIITEPVSEEADFGVIFMHNEGYSTMCGHATIALGKVAVECGLVEAKEPITEIKMDSPAGLIKIYVKVRDGKVEKVYFHNVPSFVLFKDETINVPGIGEVKYDLAYGGAFYAFVNAEEIGLKCTPEYYRQLIDVGMKIKRAIMSEKEIRHPFEEDLSFLYGTIFIGEPEDENSHSRHVCIFADGEVDRSPTGTGVSARLAILYEKGEIDIGEEITIESIIGTKFTGKVVEETRYGLYRAIIPEVGGNAYIVAKNTFLIDPQDPLKYGFFLR"}}, "substrate": "O=C(O)[C@H]1NCC[C@@H]1O", "assay": "purified protein", "conditions": "pH 8.0 Tris-HCl, 50 °C, 0.15 mM NADH, TlLhpI as coupling enzyme", "data": [{"protein": "B1", "values": [{"measurement": "Km", "value": 288, "unit": "µM"}, {"measurement": "kcat", "value": 28.5, "unit": "s⁻¹"}]}]}
